# Measurements published in patent US20240325562A1, “INTERNALIZING BINDING MOLECULES” (LinXis B.V., priority 2020, published 2024).
# T1: rPDGFRB-ECD (Rattus norvegicus, UniProt Q05030)
# T1 sequence (Q05030 32-531 limits assumed): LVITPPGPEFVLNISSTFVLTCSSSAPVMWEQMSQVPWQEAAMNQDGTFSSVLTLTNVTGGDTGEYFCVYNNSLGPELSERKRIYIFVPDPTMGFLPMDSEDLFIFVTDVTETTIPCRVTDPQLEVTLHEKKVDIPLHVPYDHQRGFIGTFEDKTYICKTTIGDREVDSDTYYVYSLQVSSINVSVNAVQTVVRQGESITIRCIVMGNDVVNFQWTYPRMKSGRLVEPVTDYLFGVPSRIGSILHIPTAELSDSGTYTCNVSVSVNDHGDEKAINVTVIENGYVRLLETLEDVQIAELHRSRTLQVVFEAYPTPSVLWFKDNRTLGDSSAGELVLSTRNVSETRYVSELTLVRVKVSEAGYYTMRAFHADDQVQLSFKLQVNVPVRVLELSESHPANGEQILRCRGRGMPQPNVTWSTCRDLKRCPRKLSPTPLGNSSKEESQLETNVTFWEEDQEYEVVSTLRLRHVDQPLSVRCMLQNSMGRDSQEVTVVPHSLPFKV
# T2: murine PDGFRB ectodomain (mPDGFRB-ECD) (Mus musculus, UniProt P05622)
# T2 construct: varied across murine PDGFRB ectodomain (mPDGFRB-ECD), rPDGFRB-ECD and hPDGFRB-ECD
# T2 sequence (P05622 32-531 limits assumed): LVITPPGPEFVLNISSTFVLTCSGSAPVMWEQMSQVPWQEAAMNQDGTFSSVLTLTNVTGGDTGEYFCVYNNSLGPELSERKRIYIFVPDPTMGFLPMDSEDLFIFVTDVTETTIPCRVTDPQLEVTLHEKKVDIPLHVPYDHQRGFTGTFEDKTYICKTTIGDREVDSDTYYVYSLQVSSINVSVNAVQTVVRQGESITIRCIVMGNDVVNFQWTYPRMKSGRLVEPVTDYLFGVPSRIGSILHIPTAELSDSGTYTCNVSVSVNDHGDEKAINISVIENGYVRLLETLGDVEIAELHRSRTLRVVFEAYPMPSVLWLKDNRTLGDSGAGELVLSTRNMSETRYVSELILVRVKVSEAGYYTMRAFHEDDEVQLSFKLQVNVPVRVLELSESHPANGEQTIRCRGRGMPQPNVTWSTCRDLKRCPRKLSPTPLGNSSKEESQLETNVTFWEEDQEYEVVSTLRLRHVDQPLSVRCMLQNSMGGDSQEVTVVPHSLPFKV
# B1: SP02P-SP26P: biparatopic PDGFRB VHH construct combining SP02P and SP26P (protein)
# chain: EVQLVESGGGLVQAGGSLRLSCAASESISSIEQMGWFRQAPGKQRALVAINTYGGRTVYTNSVEGRFTMSRDSAKNMVYLQMTSLEPEDTAVYYCYAQTTAWRGGVWGQGTQVTVSSGGGGSGGGGSGGGGSEVQLVESGGGLVQAGGSLRLSCAASGRSFSSSVMGWFRQTPGKEREFVAATRWTAASTHYADSVKGRFTISRDHAENAVFLQMNSLKPEDTAVYYCAAGNYLDTAQYRYNYWGQGTQVTVSS
# modifications: left off: small tags and cut ends
# Legend:
# hPDGFRB-ECD = hPDGFRB-ECD (Homo sapiens, UniProt P09619); assay: Binding assay on hPDGFRB-ECD; conditions: IRDye800-conjugated, FIG. 15D
# Sequence of hPDGFRB-ECD (P09619 33-532 limits assumed): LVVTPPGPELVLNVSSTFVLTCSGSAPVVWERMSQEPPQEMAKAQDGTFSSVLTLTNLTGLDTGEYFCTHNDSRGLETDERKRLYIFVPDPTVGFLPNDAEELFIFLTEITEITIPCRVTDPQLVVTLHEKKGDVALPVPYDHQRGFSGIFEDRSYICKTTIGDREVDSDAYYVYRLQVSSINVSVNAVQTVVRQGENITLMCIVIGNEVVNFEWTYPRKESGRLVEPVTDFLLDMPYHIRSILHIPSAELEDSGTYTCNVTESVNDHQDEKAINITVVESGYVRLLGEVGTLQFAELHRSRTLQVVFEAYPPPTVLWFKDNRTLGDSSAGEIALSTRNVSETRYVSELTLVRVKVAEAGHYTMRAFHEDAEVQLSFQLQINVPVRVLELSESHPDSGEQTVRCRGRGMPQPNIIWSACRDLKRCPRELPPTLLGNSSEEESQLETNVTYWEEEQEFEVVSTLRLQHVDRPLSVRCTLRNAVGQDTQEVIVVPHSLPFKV
# Method: The 15 unique hIGF2R-binding VHH (Example 2.1, FIG. 2) were produced and purified as described in examples 3 and 4. The apparent affinities were determined through binding assay on immobilized hIGF2R-ECD. Briefly, three-fold serial dilution series, starting from 1 μM, of each VHH were plated onto hIGF2R-ECD coated plates. VHH were allowed to bind for two hours after which plates were washed. Then, bound VHH was detected using a VHH-specific IgG antibody, followed by an IRD800CW-conjugated IgG-specific antibody. Plates were read out by fluorimetry.
# (§1) The 18 unique hPDGFRB binders from libraries 1 and 2, and the 11 unique rPDGFRB binders from libraries 3 and 4 (Example 2.2, FIGS. 5 and 6) were produced and purified as described in examples 3 and 4. Then, the apparent affinities were determined with binding assays on hPDGFRB-ECD and rPDGFRB-ECD, respectively, the setup described in example 5.1. Results are summarized in FIGS. 5 and 6 for the hPDGFRB and rPDGFRB VHHs, respectively.
# Based on their high affinity and binding to non-overlapping hPDGRB epitopes, various biparatopic constructs were prepared based on VHHs SP02P, SP12P SP14P, SP26P and SP28P. The constructs were produced as described in example 7.1. and subjected to binding assay.
# As Shown in FIG. 15C), the binding affinity of this construct for both hPDGFRB and rPDGFRB are below 5 nM. […]
# rPDGFRB-ECD = biological target: T1, rPDGFRB-ECD; assay: Binding assay on rPDGFRB-ECD; conditions: IRDye800-conjugated, FIG. 15D
# Method: as §1
# As Shown in FIG. 15C), the binding affinity of this construct for both hPDGFRB and rPDGFRB are below 5 nM. […] These observations make SP02P (or similar VHH) and SP26P (or similar VHH) particularly promising for use in the present invention.
# [1] = biological target: T2, murine PDGFRB ectodomain (mPDGFRB-ECD); assay: Binding assay on murine PDGFRB ectodomain; conditions: IRDye800-conjugated, FIG. 15D
# SCC-hPDGFRB cells = assay: Kinetic internalization assay on SCC-hPDGFRB cells; assay type: cell-based, human
# Method: (§2) The rate of internalization (endocytic rate constant, ke) of biparatopic constructs 13F11-13E8 and 13E8-13F11 was determined with a kinetic internalization assay on SCC-hIGF2R and SCC-rIGF2R cells. Briefly, 10 nM of IRD800CW conjugated 13F11-13E8 or 13E8-13F11 (conjugation method as described in example 10.2) was added to hIGF2R expressing SCC cells or rIGF2R expressing SCC cells and incubated at 37° C. for different time points up to 12 minutes. Internalization was then purposely halted by putting the cells on ice. Subsequently, cells were washed with cold PBS and the non-internalized VHH construct (bound fraction) was separated from the internalized construct (internalized fraction) using an acid-wash, as described above, after which the fluorescence of both fractions were measured. Both constructs internalize with similar endocytic rate constants in SCC-hIGF2R cells (ke around 1.5 min-1) and in SCC-rIGF2R cells (ke around 0.7 min-1) (FIGS. 17A and B, respectively).
# To determine the rate of internalization of the VHH construct SP02P-SP26P, kinetic internalization assays on hPDGFRB expressing SCC cells and LX-2 cells were performed using a similar method as described for the IGF2R constructs in example 11.1. […]
# LX-2 cells = assay: Kinetic internalization assay on LX-2 cells; assay type: cell-based, human; conditions: FIG. 19 right panel
# Method: as §2
# To determine the rate of internalization of the VHH construct SP02P-SP26P, kinetic internalization assays on hPDGFRB expressing SCC cells and LX-2 cells were performed using a similar method as described for the IGF2R constructs in example 11.1.
# SCC-rPGDFRB cells = assay: Kinetic internalization assay on SCC-rPGDFRB cells; assay type: cell-based; conditions: IRDye800 conjugates, cells expressing rat PDGFRB
# Method: as §2
# To confirm improved internalization of biparatopic VHH constructs compared to the monomeric individual VHH components, kinetic internalization assays were performed using SCC-rPGDFRB and on SCC-hPDGFRB cells, using a similar method as described for the IGF2R constructs in example 11.1. […]
molecule,measurement,setting,value
B1,affinity for hPDGFRB-ECD,hPDGFRB-ECD,high affinity
same,affinity for rPDGFRB-ECD,rPDGFRB-ECD,high affinity
same,affinity for mPDGFRB-ECD,[1],high affinity
same,internalization,SCC-hPDGFRB cells; FIG. 19 left panel,observed
same,internalization rate compared to monomeric VHH SP02 and SP26,"SCC-hPDGFRB cells; IRDye800 conjugates, cells expressing human PDGFRB",5-10 fold
same,internalization,LX-2 cells,observed
same,internalization rate compared to monomeric VHH SP02 and SP26,SCC-rPGDFRB cells,5-10 fold
